We go through 4 molecules from article PMC8583203, “DisA Restrains the Processing and Cleavage of Reversed Replication Forks by the RuvAB-RecU Resolvasome”.

The Kd is the concentration at which binding is half-saturated.

Data set [1] concerns the target T1, DisA (Bacillus subtilis, UniProt P37573 1-360).
T1 sequence: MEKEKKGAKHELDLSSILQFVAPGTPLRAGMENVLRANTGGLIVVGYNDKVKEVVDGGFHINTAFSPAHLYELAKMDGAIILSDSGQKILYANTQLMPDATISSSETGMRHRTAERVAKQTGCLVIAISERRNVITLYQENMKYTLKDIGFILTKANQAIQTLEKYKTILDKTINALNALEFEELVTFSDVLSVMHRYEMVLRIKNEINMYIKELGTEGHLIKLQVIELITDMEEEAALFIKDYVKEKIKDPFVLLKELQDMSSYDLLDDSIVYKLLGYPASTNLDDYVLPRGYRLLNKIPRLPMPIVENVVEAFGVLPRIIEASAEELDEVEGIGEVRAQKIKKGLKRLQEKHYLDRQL
Put plainly: EMSA. The following applies: 10 mM Mg2+; 0.2% glutaraldehyde; 50 mM Tris-HCl pH 7.5, 50 mM NaCl, 1 mM DTT, 0.05 mg/mL BSA, 5% glycerol, 1 or 10 mM MgCl2 or 5 mM EDTA, 15 min 37 C, 0.2 nM DNA; 0.2% glutaraldehyde before 6% …. A general note: A gel shift assay detects complexes by their altered migration in electrophoresis.

The target in data set [2] is T1, DisA. Kind of data set: EMSA; 10 mM Mg2+; 0.2% glutaraldehyde; 50 mM Tris-HCl pH 7.5, 50 mM NaCl, 1 mM DTT, 0.05 mg/mL BSA, 5% glycerol, 1 or 10 mM MgCl2 or 5 mM EDTA, 15 min 37 C, 0.2 nM DNA; 0.2% glutaraldehyde before 6%. The conditions noted are these: protein: recombinant, chain copies: 8, label: 32P (5' by gamma-32P).
Data set [3] concerns the target T2, RecU (Bacillus subtilis, UniProt P39792 1-206).
T2 sequence: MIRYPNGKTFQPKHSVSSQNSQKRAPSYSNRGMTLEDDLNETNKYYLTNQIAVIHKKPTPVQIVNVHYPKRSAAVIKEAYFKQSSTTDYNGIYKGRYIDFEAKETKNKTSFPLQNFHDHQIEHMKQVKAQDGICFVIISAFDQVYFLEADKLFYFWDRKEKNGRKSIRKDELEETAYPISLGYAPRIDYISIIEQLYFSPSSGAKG
Kind of data set: EMSA; 1 mM Mg2+; 50 mM Tris-HCl pH 7.5, 50 mM NaCl, 1 mM DTT, 0.05 mg/mL BSA, 5% glycerol, 1 or 10 mM MgCl2 or 5 mM EDTA, 15 min 37 C, 0.2 nM DNA; 0.2% glutaraldehyde before 6%. The conditions noted are these: protein: recombinant; chain copies: 2; label: 32P (5' by gamma-32P); four-way junction.

Data set [4] concerns the target T3, RuvA (Bacillus subtilis, UniProt O05392 1-201).
T3 sequence: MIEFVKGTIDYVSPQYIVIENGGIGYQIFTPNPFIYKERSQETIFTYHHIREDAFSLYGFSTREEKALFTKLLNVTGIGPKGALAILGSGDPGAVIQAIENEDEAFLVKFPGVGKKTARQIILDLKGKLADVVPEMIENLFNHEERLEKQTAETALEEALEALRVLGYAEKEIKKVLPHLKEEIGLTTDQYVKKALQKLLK
The description is as above. The conditions noted are these: protein: recombinant; chain copies: 8; label: 32P (5' by gamma-32P); four-way junction.

Data set [5] has as its target T1, DisA. Put plainly: EMSA; 10 mM Mg2+; 500 uM ATP; 50 mM Tris-HCl pH 7.5, 50 mM NaCl, 1 mM DTT, 0.05 mg/mL BSA, 5% glycerol, 1 or 10 mM MgCl2 or 5 mM EDTA, 15 min 37 C, 0.2 nM DNA; 0.2% glutaraldehyde before 6%. The following applies: protein: recombinant; chain copies: 8; label: 32P (5' by gamma-32P); four-way junction.
Data set [6] addresses T4, DisA;RuvA (Bacillus subtilis;Bacillus subtilis, UniProt P37573;O05392 1-360;1-201, |).
T4 sequence 1: T1 sequence
T4 sequence 2: T3 sequence
Put plainly: EMSA; 1 mM Mg2+; new R+A complex; 50 mM Tris-HCl pH 7.5, 50 mM NaCl, 1 mM DTT, 0.05 mg/mL BSA, 5% glycerol, 1 or 10 mM MgCl2 or 5 mM EDTA, 15 min 37 C, 0.2 nM DNA; 0.2% glutaraldehyde before 6%. The conditions noted are these: protein: recombinant;recombinant; tags: ;; chain copies: 8;8; label: 32P (5' by gamma-32P); four-way junction.

For data set [7], the target named is T5, RuvA;RuvB (Bacillus subtilis;Bacillus subtilis, UniProt O05392;O32055 1-201;1-334, |).
T5 sequence 1: T3 sequence
T5 sequence 2: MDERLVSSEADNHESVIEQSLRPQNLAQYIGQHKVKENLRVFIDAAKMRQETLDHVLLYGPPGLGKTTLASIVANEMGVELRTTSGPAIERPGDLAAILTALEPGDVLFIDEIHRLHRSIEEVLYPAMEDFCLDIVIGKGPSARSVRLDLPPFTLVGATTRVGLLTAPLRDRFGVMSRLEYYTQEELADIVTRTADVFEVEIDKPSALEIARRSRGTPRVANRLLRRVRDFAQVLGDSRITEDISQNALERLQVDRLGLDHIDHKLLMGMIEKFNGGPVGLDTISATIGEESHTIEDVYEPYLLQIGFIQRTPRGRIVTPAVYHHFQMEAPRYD
Kind of data set: DNase I footprinting; 10 mM Mg2+; 5 mM ATPgS; ~40-nt footprint; 50 mM Tris-HCl pH 7.5, 50 mM NaCl, 1 mM DTT, 0.05 mg/mL BSA, 5% glycerol, 1 or 10 mM MgCl2 or 5 mM EDTA, 15 min 37 C, 0.2 nM DNA; 0.2% glutaraldehyde before 6%. The following applies: protein: recombinant;native; tags: ;; chain copies: 8;12; label: 32P (5' by gamma-32P); four-way junction.

In data set [8] the target is T6, DisA;RuvA;RuvB (Bacillus subtilis;Bacillus …, UniProt P37573;O05392;O32055 1-360;1-201;1-334, ||).
T6 sequence 1: T1 sequence
T6 sequence 2: T3 sequence
T6 sequence 3: T5 sequence 2
Kind of data set: DNase I footprinting; 10 mM Mg2+; 5 mM ATPgS; either order of addition; 50 mM Tris-HCl pH 7.5, 50 mM NaCl, 1 mM DTT, 0.05 mg/mL BSA, 5% glycerol, 1 or 10 mM MgCl2 or 5 mM EDTA, 15 min 37 C, 0.2 nM DNA; 0.2% glutaraldehyde before 6%. The following applies: protein: recombinant;recombinant;native; tags: ;;; label: 32P (5' by gamma-32P); four-way junction.

For data set [9], the target named is T7, DisA;RecU (Bacillus subtilis;Bacillus subtilis, UniProt P37573;P39792 1-360;1-206, |).
T7 sequence 1: T1 sequence
T7 sequence 2: T2 sequence
Put plainly: DNase I footprinting; preformed at 1 mM Mg2+, then 10 mM Mg2+; coexistence judged likely; 50 mM Tris-HCl pH 7.5, 50 mM NaCl, 1 mM DTT, 0.05 mg/mL BSA, 5% glycerol, 1 or 10 mM MgCl2 or 5 mM EDTA, 15 min 37 C, 0.2 nM DNA; 0.2% glutaraldehyde before 6%. The conditions noted are these: protein: recombinant;recombinant; tags: ;; chain copies: 8;2; label: 32P (5' by gamma-32P); four-way junction.

For the molecule ssDNA (oligonucleotide not stated), the Kd in data set [1] came to 3.3 nM.

B1: flayed DNA (170/173) (structured_DNA)
DNA 1: AGACGCTGCCGAATTCTGGCTTGGATCTGATGCTGTCTAGAGGCCTCCACTATGAAATCG
DNA 2: AGCTCATAGATCGATAGTCTCTAGACAGCATCAGATCCAAGCCAGAATTCGGCAGCGTCT
On to B1, for which the Kd in data set [2] (fork 1:2, unpaired 3' end of 170 and 5' end of 173) amounted to 3.2 ± 0.2 nM.

B2: dsDNA (80-bp) (dsDNA)
DNA 1: CGCAGCGACAGGAACCTCGAGGAATTCAACCACCGCTCAACTCAACTGCAGTCTGACTCGAGGTTCCTGTCGCTTGCG
DNA 2: CGCAAGCGACAGGAACCTCGAGTCTAGACTGCAGTTGAGTTGAGCGGTGGTTGAATTCCTCGAGTTCCTGTCGCTTGCG
As for B2, the Kd in data set [2] (duplex, printed strands not exactly complementary (small deletions/insertion)) was found to be 2.6 ± 0.3 nM.

B3: HJ-J3 DNA (fixed Holliday junction) (structured_DNA)
DNA 1: CGCAAGCGACAGGAACCTCGAGAAGCTTCCGGTAGCAGCCTGAGCGGTGGTTGAATTCCTCGAGGTTCCTGTCGCTTGCG
DNA 2: B2 DNA 1
DNA 3: CGCAAGCGACAGGAACCTCGAGTCTAGACTGCAGTTGAGTCCTTGCTAGGACGGATCCCTCAGGTTCCTGTCGCTTGCG
DNA 4: CGCAAGCGACAGGAACCTCGAGGGATCCGTCCTAGCAAGGGGCTGCTACCGGAAGCTTCTCGAGGTTCCTGTCGCTTGCG
For the molecule B3, the Kd in data set [3] worked out at 0.6 ± 0.2 nM; in data set [4], 10 ± 2 nM; in data set [5], 5.5 ± 0.3 nM; in data set [2] (four-way junction), 3 ± 0.5 nM. The binding result in [6], in data set [7], in data set [8] and in [9] was “binds” each time.
